Assay results: patent US9051356

Biological target: synthetic glycosylated MUC1 30-mer peptide …[GalNAcalpha]…
Assay: ELISA on plate-coated glycosylated MUC1 30-mer peptide, antibody 1-400 ng/ml, anti-human Fcgamma1-peroxidase detection

Sequence of synthetic glycosylated MUC1 30-mer peptide …[GalNAcalpha]… (peptide, as listed by the source): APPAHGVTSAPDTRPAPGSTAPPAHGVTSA

binding activity, percent higher than that of the same antibody isolated from CHOdhfr- cells: 50%
Substance: chimeric PankoMab isolated from NM-F9 cells (antibody)
